This note sets out measurements from patent US20260373285 (published 2026).

Where a chain is given by its changes, count along the chain named. Where two headings read alike, the source gives them in different places.

Assay [1] has as its target T1, human Trop-2 (His) (human, UniProt P09758).
T1 chain: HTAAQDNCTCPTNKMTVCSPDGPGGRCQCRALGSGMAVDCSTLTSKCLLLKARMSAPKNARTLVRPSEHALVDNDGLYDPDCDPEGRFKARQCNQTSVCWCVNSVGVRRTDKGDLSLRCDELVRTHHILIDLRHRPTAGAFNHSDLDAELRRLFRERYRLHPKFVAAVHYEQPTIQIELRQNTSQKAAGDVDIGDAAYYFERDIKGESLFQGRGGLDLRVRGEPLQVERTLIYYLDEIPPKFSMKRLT
The assay is described as follows: SPR.

Assay [2] concerns the target T1, human Trop-2 (His). The assay is described as follows: SPR.
Assay [3] addresses T2, human Trop-2 on MDA-MB-468 cells (human, UniProt P09758).
T2 chain: T1 chain
The assay is described as follows: FACS.

Assay [4] addresses T1, human Trop-2 (His). As to the kind of experiment: ELISA. In general terms: ELISA stands for enzyme-linked immunosorbent assay.
Assay [5] concerns the target T1, human Trop-2 (His). The assay is described as follows: SPR. Background: Surface plasmon resonance follows binding to a sensor surface in real time, without labels.
Assay [6] has as its target T1, human Trop-2 (His). As to the kind of experiment: SPR.
Assay [7] deals with T3, hPD-L1(ECD)-His (human, UniProt Q9NZQ7). As to the kind of experiment: SPR.
Assay [8] concerns the target T3, hPD-L1(ECD)-His. The assay is described as follows: SPR supernatant.
For assay [9], the target named is T1, human Trop-2 (His). As to the kind of experiment: SPR.
Assay [10] has as its target T3, hPD-L1(ECD)-His. The assay is described as follows: SPR. This is another data set of the same source.

T3 sequence (Q9NZQ7 19-238): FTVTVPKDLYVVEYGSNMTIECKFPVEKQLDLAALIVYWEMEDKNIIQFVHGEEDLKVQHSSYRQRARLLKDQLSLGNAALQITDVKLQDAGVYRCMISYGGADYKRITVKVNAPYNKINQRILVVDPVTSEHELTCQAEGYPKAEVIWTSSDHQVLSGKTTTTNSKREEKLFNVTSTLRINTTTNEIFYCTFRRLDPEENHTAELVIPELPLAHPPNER

B1: Datopotamab (ALGA106B) (antibody, V domains shown)
VH: QVQLVQSGAEVKKPGASVKVSCKASGYTFTTAGMQWVRQAPGQGLEWMGWINTHSGVPKYAEDFKGRVTISADTSTSTAYLQLSSLKSEDTAVYYCARSGFGSSYWYFDVWGQGTLVTVSS
VL: DIQMTQSPSSLSASVGDRVTITCKASQDVSTAVAWYQQKPGKAPKLLIYSASYRYTGVPSRFSGSGSGTDFTLTISSLQPEDFAVYYCQQHYITPLTFGQGTKLEIKR
Take B1: the Kd in the assay with human Trop-2 (His) [1] was 23.5 nM; with human Trop-2 (His) [2] it was 28.3 nM; with human Trop-2 (His) [5], 15.4 nM; in the assay with human Trop-2 (His) [6] it was 22.5 nM. Besides, the EC50 was found to be 0.827 µg/mL in assay [3] and 0.0507 µg/mL with human Trop-2 (His) [4].

B2: Sacituzumab (ALGA106A) (antibody, V domains shown)
VH: QVQLQQSGSELKKPGASVKVSCKASGYTFTNYGMNWVKQAPGQGLKWMGWINTYTGEPTYTDDFKGRFAFSLDTSVSTAYLQISSLKADDTAVYFCARGGFGSSYWYFDVWGQGSLVTVSS
VL: B1 VL with M4L, T20S, T31I, S60D, Q100A, L104V
As to B2, the Kd with human Trop-2 (His) [1] and with human Trop-2 (His) [5] was 0.859 nM throughout. In addition, the EC50 in assay [3] stood at 0.151 µg/mL; in the assay with human Trop-2 (His) [4], 0.027 µg/mL.

B3: PD-L1-1.168.15-z11-uIgG1K (antibody)
chain 1: not shown
chain 2: DIQMTQSPSFLSASVGDRVTITCKASQNVHTSLAWYQQKPGKSPKALIYLASNRHTGVPSRFSGSGSGTEFTLTISSLQPEDFATYFCLQHWNYPLTFGQGTKLEIKRTVAAPSVFIFPPSDEQLKSGTASVVCLLNNFYPREAKVQWKVDNALQSGNSQESVTEQDSKDSTYSLSSTLTLSKADYEKHKVYACEVTHQGLSSPVTKSFNRGEC
As for B3, the Kd turned out to be 0.62 nM with hPD-L1(ECD)-His [7] and 0.863 nM with hPD-L1(ECD)-His [8].

B4: Trop-2-A-258hz5 (antibody, V domains shown)
VH: QVQLVESGGGLVQPGGSLRLSCAASDRTFSEYNADWFRQAPGKEREFVAAITWSGKNTRYADSVKGRFTVSRDNSKNTVYLQMNSLRPADTAVYYCATDRWWAAGNWDGVDYWGQGTLVTVSS
Molecule B4 showed a Kd with human Trop-2 (His) [2] of 68.9 nM. This molecule came in with an EC50 in assay [3] of 0.279 µg/mL.

B5: Trop-2-A-258 (antibody, V domains shown)
VH: B4 VH with P14A, S75A, R87K, A89E, Q115K
Take B5: the figures for the Kd with human Trop-2 (His) [1] and with human Trop-2 (His) [2] were 59.2 nM and 64.6 nM, respectively. For the same molecule, the concentration giving a half-maximal response (EC50) in [3] was 0.34 µg/mL; with human Trop-2 (His) [4], 0.00557 µg/mL.

B6: ALGA105T Trop-2 arm (antibody, V domains shown)
V domain 1: B4 VH with E6Q, P88A, A89E
V domain 2: EVQVVESGGGLVQPGGSLRLSCATSGYIFSNSGMGWYRQAPGKQRELVAAISSGGTTHYADSVKGRFTISRDNSKNTVYLQMNSLRAEDTAVYYCNGDRYYSGTDVFGSWGQGTLVTVSS
In turn, B6 had a Kd in the assay with human Trop-2 (His) [6] of 2.76 nM.

B7: ALGA105X-ADC Trop-2 arm (antibody, V domains shown)
V domain 1: B6 V domain 2
V domain 2: B4 VH with E6Q, P88A, A89E
modifications: exatecan drug-linker conjugate; full fusion SEQ69
In turn, B7 displayed a Kd with human Trop-2 (His) [9] of 3.33 nM.

B8: ALGA105S Trop-2 arm (antibody, V domains shown)
V domain 1: B6 V domain 2
V domain 2: B4 VH with E6Q, P88A, A89E
For B8, the Kd with human Trop-2 (His) [9] was found to be 2.75 nM; with human Trop-2 (His) [6] it was 2.44 nM.

B9: ALGA105X Trop-2 arm (antibody, V domains shown)
V domain 1: B6 V domain 2
V domain 2: B4 VH with E6Q, P88A, A89E
Take B9: the Kd with human Trop-2 (His) [9] and with human Trop-2 (His) [6] was 3.43 nM each time.

B10: Trop-2-A-258hz7 (antibody, V domains shown)
VH: B4 VH with P88A, A89E
In turn, B10 registered a Kd with human Trop-2 (His) [2] of 74.7 nM. Further, it took 0.227 µg/mL to reach a half-maximal effect in assay [3] (EC50).

B11: ALGA105S-ADC Trop-2 arm (antibody, V domains shown)
V domain 1: B6 V domain 2
V domain 2: B4 VH with E6Q, P88A, A89E
modifications: exatecan drug-linker conjugate; full fusion SEQ67
Consider B11, for which the affinity in the assay with human Trop-2 (His) [9], expressed as Kd, was 2.88 nM.

B12: Trop-2-A-258hz3 (antibody, V domains shown)
VH: B4 VH with P88A, A89E, D108S, Y112F
B12 showed a Kd with human Trop-2 (His) [2] of 99.2 nM. In assay [3], the EC50 was 8.7 µg/mL.

B13: ALGA105O Trop-2 arm (antibody, V domains shown)
V domain 1: B6 V domain 2
V domain 2: B4 VH with P14A, S75A, R87K, A89E, Q115K
As to B13, the Kd in the assay with human Trop-2 (His) [6] amounted to 2.22 nM.

B14: Trop-2-A-258hz2 (antibody, V domains shown)
VH: B4 VH with E6Q, P88A, A89E
In the assay with human Trop-2 (His) [2], B14 yielded a Kd of 75.5 nM. This molecule registered an EC50 in assay [3] of 0.176 µg/mL.

B15: Trop-2-B-16 (antibody, V domains shown)
VH: EVQVVESGGGLVQPGGSLRLSCTAPERIFSIYNMGWYRQAPGKEREWVAFLMEGGRIEYADSVKGRFTISRDNAKSTVYLQMNNLNAEDAAVYYCNAGGRSGYWGKGTLVTVSS
In the assay with human Trop-2 (His) [1], B15 yielded a Kd of 5.21 nM. Moreover, the EC50 with human Trop-2 (His) [4] worked out at 0.0166 µg/mL.

B16: ALGA105N Trop-2 arm (antibody, V domains shown)
V domain 1: B6 V domain 2
V domain 2: B15 VH
As to B16, the Kd with human Trop-2 (His) [6] stood at 0.668 nM.

B17: Trop-2-B-YC-82 (antibody, V domains shown)
VH: B6 V domain 2 with S74A, N76S, R86K, A87P, L115Q
As for B17, the Kd with human Trop-2 (His) [1] and with human Trop-2 (His) [5] was 20.1 nM each time.

B18: ALGA105M Trop-2 arm (antibody, V domains shown)
V domain 1: B6 V domain 2
V domain 2: B6 V domain 2
In turn, B18 showed a Kd with human Trop-2 (His) [6] of 99.4 nM. This lies in the double-digit nanomolar range.

B19: ALGA105S-ADC PD-L1 arm (antibody, V domains shown)
VH: EVQLVQSGAEVKKPGATVKISCKVSGFNIEDTYIYWVQQAPGKGLEWMGWIDPANYNTKYDPRFQDRVTITVDTSTDTAYMELSSLRSEDTAVYYCARGLRLLMDYWGQGTTVTVSS
VL: DIQLTQSPSFLSASVGDRVTITCKASQNVHTSLAWYQQKPGKSPKLLIYLASNRHTGVPSRFSGSGSGTEFTLTISSLQPEDFATYYCLQHWNYPLTFGQGTKLEIKR
modifications: exatecan drug-linker conjugate; full fusion SEQ67:SEQ68
In the assay with hPD-L1(ECD)-His [10], B19 registered a dissociation constant (Kd) of 0.764 nM.

B20: ALGA105X-ADC PD-L1 arm (antibody, V domains shown)
VH: B19 VH
VL: B19 VL
modifications: exatecan drug-linker conjugate; full fusion SEQ69:SEQ70
Turning to B20, in the assay with hPD-L1(ECD)-His [10], the Kd was found to be 0.652 nM.

As a reminder, the Kd is the free concentration of one partner at which half of the binding sites on the other are occupied at equilibrium, for simple one-to-one binding. What is called EC50 is the concentration needed to bring the measured effect to its halfway point. Lower therefore signals a more potent agent.
